Test results from article PMC6956818, “Activation of JNK and p38 MAPK Mediated by ZDHHC17 Drives Glioblastoma Multiforme Development and Malignant Progression” (Theranostics, 2020).

biological target: T1, ZDHHC17 (Homo sapiens, UniProt Q8IUH5); assay: ex vivo kinase assay of ZDHHC17-activated MAP2K4 with JNK2 substrate (western blot); supported by co-IP disruption in U118MG cells and ZDHHC17 mutants; no direct binding measurement; assay type: biochemical; conditions: not given
T1 construct: purified ZDHHC17 (50 ng) with recombinant MAP2K4; with MAP2K4
T1 sequence (Q8IUH5 whole entry): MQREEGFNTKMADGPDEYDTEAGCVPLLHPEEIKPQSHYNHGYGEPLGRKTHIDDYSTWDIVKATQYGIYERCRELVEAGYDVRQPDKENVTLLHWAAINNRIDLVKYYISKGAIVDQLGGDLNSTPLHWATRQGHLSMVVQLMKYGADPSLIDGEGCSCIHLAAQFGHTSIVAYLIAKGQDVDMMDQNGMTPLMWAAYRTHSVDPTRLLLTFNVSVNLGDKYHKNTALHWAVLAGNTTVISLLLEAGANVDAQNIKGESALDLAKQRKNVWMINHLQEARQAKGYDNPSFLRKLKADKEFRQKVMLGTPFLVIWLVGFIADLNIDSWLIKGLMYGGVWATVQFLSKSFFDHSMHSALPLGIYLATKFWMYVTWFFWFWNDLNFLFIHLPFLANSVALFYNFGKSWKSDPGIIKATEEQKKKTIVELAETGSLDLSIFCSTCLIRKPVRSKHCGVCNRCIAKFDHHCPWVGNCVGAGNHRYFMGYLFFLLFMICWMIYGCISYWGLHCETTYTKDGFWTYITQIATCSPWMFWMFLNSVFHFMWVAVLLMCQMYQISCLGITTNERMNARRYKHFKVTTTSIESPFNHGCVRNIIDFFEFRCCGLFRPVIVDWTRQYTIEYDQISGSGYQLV
T1 sequence (P45985 2-399 partner): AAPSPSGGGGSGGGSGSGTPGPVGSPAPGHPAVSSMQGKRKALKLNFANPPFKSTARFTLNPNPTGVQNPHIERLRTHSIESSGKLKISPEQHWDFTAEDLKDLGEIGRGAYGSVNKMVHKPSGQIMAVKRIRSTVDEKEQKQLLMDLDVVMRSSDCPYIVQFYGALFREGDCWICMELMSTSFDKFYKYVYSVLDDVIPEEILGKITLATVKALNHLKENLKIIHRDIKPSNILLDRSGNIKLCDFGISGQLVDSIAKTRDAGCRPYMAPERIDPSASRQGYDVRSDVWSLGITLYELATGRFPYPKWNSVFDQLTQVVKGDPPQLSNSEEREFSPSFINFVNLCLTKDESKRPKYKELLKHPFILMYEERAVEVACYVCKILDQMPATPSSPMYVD

Question: With `O=c1c(-c2ccc(O)cc2)coc2cc(O)cc(O)c12` [genistein] as the compound, how does the IC50 read?
Answer: 800 nM

biological target: Myc-tagged ZDHHC17 ANK (1-7); assay: co-immunoprecipitation, quantified immunoblot; conditions: HEK293 cell lysates; parent: est. 1.0; read off a plot

Question: Which ratio to parent does the source give for “FLAG-tagged MAP2K4 protein kinase c (PKc) domain fragment E221G” here?
Answer: 0.85

Question: How did the ratio to parent turn out when “FLAG-tagged MAP2K4 protein kinase c (PKc) domain fragment M153G” was run?
Answer: 0.5

Question: How did the ratio to parent turn out when “FLAG-tagged MAP2K4 protein kinase c (PKc) domain fragment N222G” was run?
Answer: 0.35

Question: Which ratio to parent does the source give for “FLAG-tagged MAP2K4 protein kinase c (PKc) domain fragment R154G” here?
Answer: 0.73

Question: How did the ratio to parent turn out when “FLAG-tagged MAP2K4 protein kinase c (PKc) domain fragment S80G” was run?
Answer: 0.83

Question: For “FLAG-tagged MAP2K4 protein kinase c (PKc) domain fragment W95G”, which ratio to parent is on record?
Answer: 0.47
